According to the RNAGym collection of RNA variant scans (doi:10.1073/pnas.2313332121):

B1: TPR t1 (parent)
chain: GACCAAUCUGCCCUCAGAGCUCGAGAACAUCUUCGGAUGCAGAGGAGGCAGGCUUCGGUGGCGCGAUAGCGCCAACGUCCUCAACCUCCAAUGCAUCCCACCACAUGAUGAUGCCUGAAGAGCCUUGGUUUUUUG

Variants of: B1
Experiment: polymerase ribozyme fitness, log enrichment relative to wild type (log ratio); higher = more active; in vitro selection for triplet polymerase activity
Method in brief: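 Each subunit of a heterodimeric triplet polymerase ribozyme was mutagenized into a library by PCR, transcribed, and subjected to one round of in vitro selection, run in triplicate. Libraries were annealed with a biotinylated primer, the partner subunit and triplets, incubated frozen at −7 °C, and extended constructs were gel-excised, captured on streptavidin beads and recovered by RT-PCR. Input and output libraries were sequenced on Illumina, keeping genotypes with ≥10 input reads and ≥1 read per output. Fitness is log base 2 of genotype enrichment divided by wild-type enrichment, from inverse-variance-weighted replicate averages.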

Variant | polymerase ribozyme fitness (log ratio)
C8U C49U C94G C104U U106A U112C | -1.29
C8U A37U C49G U55A C104A | -1.74
C8U C62U C86U C101A | -1.69
C8G G63U A75U A83G C85A G122A | -0.256
C8U G44U | -1.28
C8U U55C C73A C76G A121U | 1.02
C8U A29U G47C C72U C102A | -5.13
C8U C22G C104G G117A U125G | -4.71
C8G U38A U54G C62A C98A C123U | -7.56
C8U A68G A111C | -3.15
U9A A16G A18U A43G C70A C72U | -3.21
C8U G63U A90U G113C | -3.6
C8U G47C C53G U109G | -6.29
C8G G69A | -1.5
C8U C34A G44U G61A U130G | -4.33
C8U C12U C88G | -0.238
C8U A24G G113U C114U G122A | -1.73
C8G U14A | 0.372
C8U U96A C123G | 1.65
C8U G60C U129C | -0.854
C8U C15G A37U | -1.75

Variant | polymerase ribozyme fitness (log ratio)
U9A A18U C64U U92C | -3
C8G U14G G35C C64U C94U | -3.36
C8U A41U C97U | -0.942
C8U G63U A90G C115A | -0.076
C8U G23A U54C C73A | -6.59
C8U G47U A90G G113C | -2.16
C8U U38A C70U | -1.62
U9A A118G | 0.108
C8U A50U G69U | -0.24
C8U C20G A95G G113U G128A | -2.96
C8U A46U G61A C101A G113U | -2.36
C8U C11U G19A C73A A74C C86A | -3.7
C8G U109A | -4.06
C8U U21G | -0.546
U9A A27G C114U | -1.28
C8U U21A A50C C53G G60A C88U U125C | -5.83
C8G G63C U92A | -3.28
C8U U14C A75U G120A | 1.44
U9A A27C G71A G117C | -6.31
C8U C53U C76U | 0.843
C8U G48U G71U A74U C104A G117A C124U | -6.05

Variant | polymerase ribozyme fitness (log ratio)
C8G U14A A29G C40G G44U G57C | -2.63
C8U G19C G44U C56A C89G | -2.64
C8U U78A | 0.175
C8U U78C | 0.388
C8G U14G G35C C64U C94U C124G | -3.33
C8U C97U | -0.0319
C8G U9A G17C A95G C115A | -0.322
C8U U112A | 1.33
C8U G63C C123A U132A | 1.06
C8U C12G G42U A74U C88A | -1.72
C8U C64A | -6.53
C8U U109A | -5.29
C8U G117A | 0.294
C8U G117C | -3.02
C8U A18U A37C G45U C53A G113A C124U | -2.69
U9A A46U G77C G122A | -0.702
C8U C64A U112A | -4.99
C8U C49U | 0.318
C8U A50U G117C | -3.99
C8G U30A | -5.66
C8U U106A G127U | 0.137

Variant | polymerase ribozyme fitness (log ratio)
C8U G63C | 0.00815
C8U G63A | 0.00664
C8U G51A A121C U131G | -0.214
C8U A37G G52A C56U | -0.753
C8U G44A C101U U116C | -1.58
C8U C76A A118G | -0.712
C8U C15U G45C A50U | -1.64
C8U C13A C20A U59A G113A C123G | -1.9
C8U C49G U106A G110A | -1.48
C8U C12U G57C A90U | -0.755
C8G G107U | -5
C8U C53G C56A C86U U96G G117U | -2.48
C8U C13A C20A G113A C123G | -1.33
C8U A46C G120C | 1.49
C8U C13U C22G U59A U81C U109A | -5.73
C8U C73A A84U G128A | -1.97
C8U C20G A111C C123A | -5.26
C8U C123A U132A | 1.43
C8U G110A | 0.177
C8G U87A C101A A105C | -3.4
C8G U14G G36U C80U G120A | 1.03
